# From article doi:10.1101/2022.06.18.496527 (2022)
# Target: AVR-Pii effector domain (residues 20 to 70), purified (Magnaporthe oryzae)
# Experiment: ITC
binder,measurement,value
OsExo70F2^Δ83 (residues 84 to 689) (domain or fragment) ISAAAFDAAEQLIQVWDGTPEALVFEATEDEVAEYLSAVDVAIEHLARGSGGGAGGAGSSSSSTAGRAGVAVQLAMARLEEELRHLMVRHAVPLDPTGLFFSLRRLSLGSMDDLDTSSEFDAATPHSIDVAPETARGGPLVNPFEDQVFDPVRPEAVDDLRAIADRMARAGYSRELADAYCGIRRDLLDEYLSALGVERLSIDEVQRIEWKHLNDKMKKWVQAVKTVVRVLLAGERRLCDQVLSVSDELREECFIESTKGCIMQILSFGDAVAVCPRSPEKLSRILDMYEALAEVIPEMKDLCLGSSGDGVISDVQANLDRLGDAIRGTLFEFGKVLQLESSRRAMTAGEIHPMTRYVMNYLRLLVVYSDTLDALLDDNADDQIDLARAEDQDQEHLESMTPLGKRLLKLISYLEANLEEKSKLYEDSALECIFSMNNLLYIVQKVRDSELGKILGDHWVKRRNGKIRQYSKSYLRISWMKVLSFLKDDGHGSGSGSSSGSGSGHSSSRMSIKEKFKNFNLAFEEIYRNQTTWKVPDPQLREELKISISENVIPAYRAFLGRYGSQVDGGRNSGKYIKYTPEDLESQLSDLFEGAPGPANHSRRRT,Kd,< 1 nM
